One series concerns AncSZ. In words: phosphorylation enrichment, bacterial display (enrichment ratio); higher = better substrate or ligand; peptides without Tyr show the background.
Another series has as its target EPHB1 (UniProt P54762). The series is described as above.
Another series deals with EPHB2 (UniProt P29323). The series is described as above.
Another series addresses FGFR1 (UniProt P11362). Described as above.
A further series addresses FGFR3 (UniProt P22607). The series is described as above.
For the next series, the system named is Fer (mouse). The series is described as above.
For a further series, the target named is Fes (UniProt P07332). The description is as above.
The target in another series is Fyn (UniProt P06241). The series is described as above.
Sequence of Fyn (P06241 whole entry, looked up): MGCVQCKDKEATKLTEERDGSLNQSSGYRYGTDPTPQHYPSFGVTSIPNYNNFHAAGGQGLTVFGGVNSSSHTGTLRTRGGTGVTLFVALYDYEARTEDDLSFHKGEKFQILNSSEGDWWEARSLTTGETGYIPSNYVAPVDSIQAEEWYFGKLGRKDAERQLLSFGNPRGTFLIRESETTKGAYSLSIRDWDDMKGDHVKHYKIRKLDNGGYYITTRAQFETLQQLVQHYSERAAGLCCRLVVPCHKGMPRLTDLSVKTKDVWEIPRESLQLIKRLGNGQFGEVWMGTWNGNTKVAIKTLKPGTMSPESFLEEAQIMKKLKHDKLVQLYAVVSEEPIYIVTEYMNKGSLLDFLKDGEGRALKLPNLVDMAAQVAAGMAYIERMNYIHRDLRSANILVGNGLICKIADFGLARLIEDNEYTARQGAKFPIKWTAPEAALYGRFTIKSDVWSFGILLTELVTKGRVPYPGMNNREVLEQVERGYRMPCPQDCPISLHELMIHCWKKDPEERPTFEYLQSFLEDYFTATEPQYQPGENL
The target of another series is Hck (UniProt P08631). The description is as above.
In another series the target is Jak2 (UniProt O60674). The description is as above.
Sequence of Jak2 (O60674 whole entry, looked up): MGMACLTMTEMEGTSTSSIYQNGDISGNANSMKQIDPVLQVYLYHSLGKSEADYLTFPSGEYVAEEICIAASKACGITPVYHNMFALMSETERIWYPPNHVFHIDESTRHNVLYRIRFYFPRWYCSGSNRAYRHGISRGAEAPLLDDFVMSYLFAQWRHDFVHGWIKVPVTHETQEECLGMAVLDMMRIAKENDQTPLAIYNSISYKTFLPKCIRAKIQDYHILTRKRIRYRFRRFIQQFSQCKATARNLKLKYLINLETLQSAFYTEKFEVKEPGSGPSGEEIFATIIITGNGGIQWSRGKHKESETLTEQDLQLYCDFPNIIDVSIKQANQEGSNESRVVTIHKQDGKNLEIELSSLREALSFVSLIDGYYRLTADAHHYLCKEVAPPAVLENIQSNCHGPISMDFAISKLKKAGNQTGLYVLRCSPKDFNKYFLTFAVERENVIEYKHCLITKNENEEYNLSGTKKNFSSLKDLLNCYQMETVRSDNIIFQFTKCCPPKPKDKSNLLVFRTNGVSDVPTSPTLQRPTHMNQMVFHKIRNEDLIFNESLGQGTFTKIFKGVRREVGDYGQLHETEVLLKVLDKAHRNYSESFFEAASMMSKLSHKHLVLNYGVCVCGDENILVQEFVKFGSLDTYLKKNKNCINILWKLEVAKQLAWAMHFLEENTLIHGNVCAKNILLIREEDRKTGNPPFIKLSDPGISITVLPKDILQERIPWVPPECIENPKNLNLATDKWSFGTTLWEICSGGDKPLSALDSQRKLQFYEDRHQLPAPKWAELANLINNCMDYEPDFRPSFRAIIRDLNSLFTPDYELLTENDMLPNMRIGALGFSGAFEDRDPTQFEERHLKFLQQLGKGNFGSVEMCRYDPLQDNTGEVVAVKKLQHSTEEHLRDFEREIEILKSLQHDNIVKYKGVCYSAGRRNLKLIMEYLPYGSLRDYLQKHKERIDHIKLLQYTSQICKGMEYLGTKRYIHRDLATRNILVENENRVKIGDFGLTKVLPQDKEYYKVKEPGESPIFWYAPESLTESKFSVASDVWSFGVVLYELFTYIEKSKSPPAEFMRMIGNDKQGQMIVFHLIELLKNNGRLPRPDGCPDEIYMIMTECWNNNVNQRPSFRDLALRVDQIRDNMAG
The next series has as its target MERTK (UniProt Q12866). Described as above.
The test system of another series is c-Abl (mouse). The series is described as above.
Another series deals with c-Src. Described as above.
The next series addresses Grb2 SH2 (UniProt P62993). In words: SH2 binding enrichment of the phosphorylated peptide, bacterial display (enrichment ratio); higher = better substrate or ligand; peptides without Tyr show the background.
The next series addresses SHP2-C SH2. The series is described as above.
The target of a further series is c-Src SH2. The series is described as above.
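Throughout, for SH2 binding enrichment of the phosphorylated peptide, bacterial display: peptide library displayed on the E. coli surface as eCPX fusions, selected cells deep-sequenced, score is each peptide's frequency after selection divided by its frequency in the input.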
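Throughout, for phosphorylation enrichment, bacterial display: 11-residue human phosphosite peptides and single-mutation variants displayed on the E. coli surface, counted by deep sequencing, each peptide's frequency after selection divided by its frequency in the unselected input library; frequency after pTyr selection over input frequency; kinase dosed for 20-30% of maximal phosphorylation in three min.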

Sequence of EPHB2 (P29323 whole entry, looked up): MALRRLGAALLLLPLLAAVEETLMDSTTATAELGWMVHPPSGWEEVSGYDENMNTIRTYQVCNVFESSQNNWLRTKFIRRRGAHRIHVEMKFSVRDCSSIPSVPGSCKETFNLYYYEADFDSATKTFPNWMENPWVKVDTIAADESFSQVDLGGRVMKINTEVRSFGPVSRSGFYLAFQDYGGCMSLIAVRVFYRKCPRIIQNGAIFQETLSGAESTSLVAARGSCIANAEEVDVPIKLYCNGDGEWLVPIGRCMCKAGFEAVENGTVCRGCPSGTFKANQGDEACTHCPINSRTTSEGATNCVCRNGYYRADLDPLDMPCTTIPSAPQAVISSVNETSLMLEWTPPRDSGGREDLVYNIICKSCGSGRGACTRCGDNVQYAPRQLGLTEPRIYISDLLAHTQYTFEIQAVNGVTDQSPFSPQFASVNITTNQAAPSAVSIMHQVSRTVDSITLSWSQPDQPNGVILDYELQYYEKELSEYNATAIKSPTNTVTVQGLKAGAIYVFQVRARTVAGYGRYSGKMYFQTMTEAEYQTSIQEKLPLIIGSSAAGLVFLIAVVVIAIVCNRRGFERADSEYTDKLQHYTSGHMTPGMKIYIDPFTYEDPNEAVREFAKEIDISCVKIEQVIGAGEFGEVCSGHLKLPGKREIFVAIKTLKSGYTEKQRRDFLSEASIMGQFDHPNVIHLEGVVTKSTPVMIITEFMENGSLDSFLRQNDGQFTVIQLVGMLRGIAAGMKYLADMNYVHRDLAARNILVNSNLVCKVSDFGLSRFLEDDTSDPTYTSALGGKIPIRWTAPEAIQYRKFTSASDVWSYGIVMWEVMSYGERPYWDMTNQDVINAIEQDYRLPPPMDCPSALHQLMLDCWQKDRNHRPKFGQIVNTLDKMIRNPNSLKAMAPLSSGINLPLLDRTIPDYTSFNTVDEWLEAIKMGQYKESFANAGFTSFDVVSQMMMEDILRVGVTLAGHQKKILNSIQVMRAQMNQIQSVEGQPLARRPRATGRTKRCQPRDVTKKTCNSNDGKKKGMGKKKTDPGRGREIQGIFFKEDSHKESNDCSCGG
Sequence of FGFR1 (P11362 whole entry, looked up): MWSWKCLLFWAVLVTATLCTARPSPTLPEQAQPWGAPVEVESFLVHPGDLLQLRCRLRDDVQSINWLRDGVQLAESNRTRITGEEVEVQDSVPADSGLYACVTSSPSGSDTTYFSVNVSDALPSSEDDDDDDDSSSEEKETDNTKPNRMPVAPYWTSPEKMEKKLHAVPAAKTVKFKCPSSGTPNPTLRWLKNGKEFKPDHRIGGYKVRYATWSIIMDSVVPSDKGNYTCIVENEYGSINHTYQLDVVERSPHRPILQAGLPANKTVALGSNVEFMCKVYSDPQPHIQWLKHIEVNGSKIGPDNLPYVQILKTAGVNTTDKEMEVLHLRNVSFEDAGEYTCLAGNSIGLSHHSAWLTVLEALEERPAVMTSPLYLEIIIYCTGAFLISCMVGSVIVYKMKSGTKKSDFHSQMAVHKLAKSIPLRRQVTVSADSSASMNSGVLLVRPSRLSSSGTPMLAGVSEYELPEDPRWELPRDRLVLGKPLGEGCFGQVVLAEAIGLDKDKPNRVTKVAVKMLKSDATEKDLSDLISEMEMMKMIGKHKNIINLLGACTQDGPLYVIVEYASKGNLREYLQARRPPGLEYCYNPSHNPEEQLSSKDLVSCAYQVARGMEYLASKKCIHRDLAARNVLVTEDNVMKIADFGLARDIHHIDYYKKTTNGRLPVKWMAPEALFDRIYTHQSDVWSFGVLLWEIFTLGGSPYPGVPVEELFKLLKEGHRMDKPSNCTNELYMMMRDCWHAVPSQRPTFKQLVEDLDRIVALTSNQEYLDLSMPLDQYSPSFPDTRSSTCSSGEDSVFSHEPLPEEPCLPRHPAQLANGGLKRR
Sequence of FGFR3 (P22607 whole entry, looked up): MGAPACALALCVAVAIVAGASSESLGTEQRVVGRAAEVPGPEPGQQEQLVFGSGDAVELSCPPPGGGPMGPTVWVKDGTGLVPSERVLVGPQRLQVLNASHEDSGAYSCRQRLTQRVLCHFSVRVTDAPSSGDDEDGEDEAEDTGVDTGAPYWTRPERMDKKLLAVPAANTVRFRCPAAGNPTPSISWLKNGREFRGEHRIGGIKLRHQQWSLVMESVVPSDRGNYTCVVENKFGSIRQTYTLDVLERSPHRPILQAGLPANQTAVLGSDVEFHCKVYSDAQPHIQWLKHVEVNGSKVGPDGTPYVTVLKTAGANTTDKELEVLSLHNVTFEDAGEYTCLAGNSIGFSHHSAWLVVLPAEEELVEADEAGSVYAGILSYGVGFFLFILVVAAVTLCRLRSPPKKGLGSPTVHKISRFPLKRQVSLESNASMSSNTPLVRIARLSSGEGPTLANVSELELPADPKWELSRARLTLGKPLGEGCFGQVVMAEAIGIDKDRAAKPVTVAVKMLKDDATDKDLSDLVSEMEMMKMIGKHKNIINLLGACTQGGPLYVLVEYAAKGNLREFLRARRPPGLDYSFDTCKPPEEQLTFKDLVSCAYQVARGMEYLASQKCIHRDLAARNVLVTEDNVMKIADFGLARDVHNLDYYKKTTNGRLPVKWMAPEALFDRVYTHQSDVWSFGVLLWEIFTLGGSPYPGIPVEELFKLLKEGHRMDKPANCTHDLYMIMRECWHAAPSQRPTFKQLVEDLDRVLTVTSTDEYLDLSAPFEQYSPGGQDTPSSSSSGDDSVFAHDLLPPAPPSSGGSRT
Sequence of Grb2 SH2 (P62993 whole entry, looked up): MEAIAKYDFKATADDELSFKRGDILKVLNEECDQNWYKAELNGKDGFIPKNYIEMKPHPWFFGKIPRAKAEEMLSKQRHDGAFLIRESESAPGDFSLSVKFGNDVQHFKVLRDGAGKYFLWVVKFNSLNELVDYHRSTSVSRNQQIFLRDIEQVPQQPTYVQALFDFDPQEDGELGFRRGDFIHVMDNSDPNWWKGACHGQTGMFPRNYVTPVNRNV

Regarding KSIDEYLKLVG [RASAL2_Y381_E379D], the phosphorylation enrichment was determined as 0.843 in the series with AncSZ; 0.378 in the series with EPHB1; 0.596 with EPHB2; 0.465 in the series with FGFR1; 0.445 with FGFR3; 0.374 with Fer (mouse). The phosphorylation enrichment with Fes was found to be 0.73; with Fyn it was 0.406; with Hck, 0.489; in the series with Jak2, 0.761; in the series with MERTK, 0.34; in the series with c-Abl (mouse), 0.449. Moreover, the phosphorylation enrichment in the series with c-Src was 0.37. The SH2 binding enrichment in the series with Grb2 SH2 came to 0.992; with SHP2-C SH2 it was 0.797; with c-Src SH2 it was 0.556.
Take KSIQLYDTPFE [SHB_Y297_G293S_YF]: the phosphorylation enrichment turned out to be 1.18 in the series on AncSZ; 12.7 in the series with EPHB1; 18 with EPHB2; 0.518 with FGFR1; 0.683 with FGFR3; 3.47 with Fer (mouse). For the same sequence, the phosphorylation enrichment in the series with Fes is 1; in the series with Fyn it was 1.01; in the series with Hck, 2.17; with Jak2, 0.9; in the series with MERTK, 6.02; with c-Abl (mouse) it was 1.29. Besides, in the series with c-Src, the phosphorylation enrichment turned out to be 0.784. Further, the SH2 binding enrichment is 0.766 with Grb2 SH2, 0.802 with SHP2-C SH2 and 2.03 with c-Src SH2.
In the case of KSLSQYLEMDK [CAGE1_Y438_V435L], the phosphorylation enrichment came to 0.793 with AncSZ; 0.382 in the series with EPHB1; 0.483 in the series with EPHB2; 0.545 with FGFR1; 0.487 with FGFR3; 0.348 in the series on Fer (mouse). Further, the phosphorylation enrichment was determined as 0.836 in the series with Fes; 0.445 with Fyn; 0.415 with Hck; 0.797 with Jak2; 0.446 with MERTK; 0.56 in the series on c-Abl (mouse). In the series with c-Src, the phosphorylation enrichment was 0.4. Also, the SH2 binding enrichment with Grb2 SH2 is 0.709; with SHP2-C SH2 it was 0.837; with c-Src SH2, 1.4.
KSNSDYVDVLP [SH2D1B_Y127_N122K]: the phosphorylation enrichment in the series with AncSZ turned out to be 1.11; with EPHB1, 3.1; in the series with EPHB2, 1.45; with FGFR1, 2.42; with FGFR3, 1.68; in the series with Fer (mouse), 0.583. The phosphorylation enrichment amounted to 0.887 in the series with Fes; 0.419 with Fyn; 0.477 with Hck; 0.705 with Jak2; 0.43 in the series with MERTK; 0.531 in the series on c-Abl (mouse). For the same sequence, in the series with c-Src, the phosphorylation enrichment was found to be 0.449. Further, the SH2 binding enrichment was determined as 0.757 with Grb2 SH2, 0.479 in the series with SHP2-C SH2 and 0.475 with c-Src SH2.
For KSRQIYDAFIM [GRK3_Y109_R104K_YF], the phosphorylation enrichment in the series with AncSZ is 0.764; with EPHB1, 4.7; with EPHB2, 6.65; with FGFR1, 0.576; with FGFR3, 0.6; with Fer (mouse) it was 14.4. Also, the phosphorylation enrichment amounted to 0.941 with Fes; 13 with Fyn; 10.4 with Hck; 0.799 in the series with Jak2; 11.7 with MERTK; 16.5 in the series on c-Abl (mouse). In addition, the phosphorylation enrichment with c-Src stood at 9.72. The SH2 binding enrichment with Grb2 SH2 stood at 0.703; in the series with SHP2-C SH2, 0.947; with c-Src SH2, 0.477.
Consider KTGDYYDLYGG [PTPN11_Y63_N58K], for which the phosphorylation enrichment with AncSZ came to 1.86; with EPHB1, 9.65; in the series with EPHB2 it was 7.72; with FGFR1, 16.8; with FGFR3, 13.8; in the series on Fer (mouse), 0.829. In addition, the phosphorylation enrichment came out at 1.09 with Fes; 4.48 with Fyn; 5.07 with Hck; 2.26 in the series with Jak2; 3.04 with MERTK; 0.813 with c-Abl (mouse). Besides, the phosphorylation enrichment in the series with c-Src worked out at 3.86. In addition, the SH2 binding enrichment stood at 0.858 with Grb2 SH2, 0.665 with SHP2-C SH2 and 0.916 with c-Src SH2.
KTTILHKLKLG [ARF1_Y35_Y35H]: the phosphorylation enrichment with AncSZ turned out to be 0.584; in the series with EPHB1, 0.4; with EPHB2 it was 0.509; with FGFR1 it was 0.439; with FGFR3, 0.518; in the series with Fer (mouse), 0.435. Also, the phosphorylation enrichment in the series with Fes is 0.739; with Fyn, 0.333; in the series with Hck it was 0.39; with Jak2, 0.548; with MERTK, 0.35; with c-Abl (mouse) it was 0.591. Moreover, the phosphorylation enrichment with c-Src worked out at 0.326. Further, the SH2 binding enrichment turned out to be 1.5 with Grb2 SH2, 1.24 in the series with SHP2-C SH2 and 1.46 with c-Src SH2.
As to KTVQDYLKKFF [MMP8_Y36_E38K_YF], the phosphorylation enrichment turned out to be 1.07 with AncSZ; 0.473 in the series with EPHB1; 0.371 in the series with EPHB2; 0.523 with FGFR1; 0.545 in the series with FGFR3; 0.563 in the series with Fer (mouse). Besides, the phosphorylation enrichment with Fes is 1.05; with Fyn, 0.575; in the series with Hck, 0.494; with Jak2 it was 0.795; with MERTK, 0.494; in the series with c-Abl (mouse), 0.66. In the series on c-Src, the phosphorylation enrichment turned out to be 0.488. The SH2 binding enrichment in the series with Grb2 SH2 stood at 0.649; in the series with SHP2-C SH2, 0.56; in the series with c-Src SH2, 0.42.

These data come from the supplement of paper PMC10065799, “High-throughput profiling of sequence recognition by tyrosine kinases and SH2 domains using bacterial peptide display” (eLife, 2023).
